The results in this text go back to paper doi:10.1101/2023.06.05.543739.

What all share (experiment): ITC
In general terms: ITC needs no label: the signal is the heat of the interaction.

One experiment concerns the target PER2 1132-1252 (UniProt O54943).
Experiment [1] has as its target hRbBP5 (Isoform 2) (human).
A further experiment deals with PER1 1013-1291 (UniProt O35973).
Chain of UniProt O35973 (O35973 1013-1291): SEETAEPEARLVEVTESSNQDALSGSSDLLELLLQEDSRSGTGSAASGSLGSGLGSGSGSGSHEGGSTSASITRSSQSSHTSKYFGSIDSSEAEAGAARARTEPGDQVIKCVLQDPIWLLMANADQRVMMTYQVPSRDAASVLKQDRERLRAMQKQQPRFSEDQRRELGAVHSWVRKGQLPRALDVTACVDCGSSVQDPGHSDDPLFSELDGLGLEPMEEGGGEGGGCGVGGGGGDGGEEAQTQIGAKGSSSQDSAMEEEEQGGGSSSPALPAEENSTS

Chain of UniProt O54943 (O54943 1132-1252): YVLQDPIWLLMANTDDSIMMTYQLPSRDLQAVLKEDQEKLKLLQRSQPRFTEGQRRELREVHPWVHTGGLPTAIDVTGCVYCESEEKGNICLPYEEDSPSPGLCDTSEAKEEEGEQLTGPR

The term Kd denotes the constant that tells how readily two partners part at equilibrium. A high value points to weaker binding. Consider “WDR5 23-334 (from UniProt P61964 23-334) (domain or fragment; other documents disagree on this pair)”, for which the Kd in the experiment with PER2 1132-1252 was 50 µM.
“WDR5 23-334 N225A (from UniProt P61964 23-334) (domain or fragment)” gave a Kd in experiment [1] of 71 µM.
As to “WDR5 23-334 N225A (from UniProt P61964 23-334) (domain or fragment; other documents disagree on this pair)”, the Kd with PER1 1013-1291 was found to be 7 µM.
